Results published in patent US20250376498A1, “FUSION PROTEINS COMPRISING AN IMPROVED GLP-1 RECEPTOR AGONIST AND USES THEREOF” (Guangzhou Innogen Pharmaceutical Group Co., Ltd., priority 2022, published 2025).
Entries after “also recorded” stand apart in the source; their conditions may differ.

Columns and labels:
[1] = tested on: INS-1 cells; test: Insulin secretion from INS-1 cells; assay type: cell-based
Protocol: Natural GLP-1 stimulates insulin secretion from beta cells in a glucose-dependent manner. […] INS-1 cells were serum-starved and glucose-starved, then treated with different amounts of purified YN-011 in the presence of 0, 5, or 20 mM glucose as indicated.

[2] = tested on: db/db mice; test: Multiple subcutaneous injections in db/db mice (type 2 diabetes model); assay type: in vivo; conditions: for rate of fasting blood glucose reduction: 54 hours (day 21) after the 7th administration; for average rate of decline in random blood glucose levels: 72 hours after the 7th administration; for average rate of fasting blood glucose reduction: average over measurement time points
Protocol: The impact of multiple subcutaneous injections of YN-011 on reducing blood glucose levels was evaluated in db/db mice (Jackson Laboratories, 000642). The mice were kept under normal lighting conditions (12 hours light/12 hours dark) and at room temperature, with free access to food (normal rodent chow) and water. Db/db mice lack leptin receptors and spontaneously develop obesity, hyperglycemia, and pancreatic B-cell atrophy by 4 weeks of age.
Sixty affected db/db mice (33-45g) were divided into six groups of 10 mice each (5 males and 5 females) and administered 0 (PBS buffer control), 0.15, 0.3, 0.6, or 1.2 mg/kg of YN-011, or 0.3 mg/kg of Degludec via subcutaneous injection. Another group of wild-type mice (17-22g) with the same genetic background served as the normal control. The administration frequency was once every 3 days (Q3D), with a total of 9 doses administered over a period of 26 days. […] The duration of the hypoglycemic effect ranged from 34 to 72 hours within the dose range of 0.15-1.2 mg/kg.

[3] = tested on: patients with T2DM; conditions: 1 mg YN-011, 24 weeks
[4] = tested on: T2DM subjects; test: Phase IIa clinical trial, efficacy and safety in T2DM subjects; assay type: in vivo, human
Protocol: Key inclusion criteria for the phase IIa study: • Patients with T2DM (WHO 1999) who have not taken metformin for at least 1 week and have not taken any other oral antidiabetic drugs for at least 2 weeks. • HbA1c levels at screening: 7.0%≤HbA1c≤10.0%. • Age between 18 and 65 years at screening. • BMI ≥20 kg/m^2 and ≤40 kg/m^2.
Key exclusion criteria for the phase IIa study: • Type 1 diabetes. • Fasting C-peptide <0.81 ng/mL. • Laboratory parameters meeting one of the following criteria: alanine aminotransferase (ALT) levels ≥2.5 ×ULN, and/or aspartate aminotransferase (AST) levels ≥2.5 ×ULN, fasting triglycerides >5.6 mmol/L; estimated glomerular filtration rate (eGFR) calculated by the CKD-EPI (EPI-(Scr)) equation <45 mL/min/1.73 m^2, • Known susceptibility to familial (first-degree relatives) or personal history of type 2 multiple endocrine neoplasia or medullary thyroid carcinoma. • Uncontrolled hypertension. • Known history of pancreatitis, pancreatic cancer, or serum amylase >1.2 ×ULN, or high-risk factors for pancreatitis at screening. • Patients with uncontrolled hypothyroidism. • Suspicion of active infection. • Positive hepatitis B surface antigen (HBsAg), hepatitis C antibody (HCV-Ab), human immunodeficiency virus antibody (HIV-Ab), or Treponema pallidum antibody (TPAb). • Treatment with GLP-1 receptor agonists, DPP-4 inhibitors, or insulin in the 3 months prior to randomization. • History of grade 3-4 allergy to any protein drug as per CTCAE. • Blood donation or blood loss exceeding 450 mL in the 3 months prior to screening. • Any significant endocrine, immune, coagulation, urinary reproductive tract abnormality, or hematological disease. • Clinically significant gastric emptying disorder (e.g., gastric outlet obstruction), severe chronic gastrointestinal disease (e.g., active ulcer within 6 months), long-term use of drugs directly affecting gastrointestinal motility, or previous gastrointestinal surgery. • Any other condition that the investigator or primary physician deems unsuitable for participation in the study. […]

[5] = Determination of oxidation levels by LC-MS/MS; assay type: physicochemical
Protocol: Following the protein oxidation measurement method described in Example 2 or by referring to Bettinger et al., the oxidation levels were determined. It was observed that the GLP-1 fusion protein YN-011 of the present invention was not oxidized at position W31, whereas the oxidation level of […] at the same position exceeded 5%. The oxidation occurred at the location indicated by the rectangular box in the structure of W31.

[6] = db/db mice, after the last administration (9th dose, day 26)

B1: YN-011: GLP-1 fusion protein of SEQ ID NO: 7: GLP-1 (A8G, G22E, R36G), linker peptide and IgG2/Fc domain (C222S, A330S, P331S) (protein)
chain: HGEGTFTSDVSSYLEEQAAKEFIAWLVKGGGSSGAPPPSGGGGSERKSCVECPPCPAPPVAGPSVFLFPPKPKDTLMISRTPEVTCVVVDVSHEDPEVQFNWYVDGVEVHNAKTKPREEQFNSTFRVVSVLTVVHQDWLNGKEYKCKVSNKGLPSSIEKTISKTKGQPREPQVYTLPPSREEMTKNQVSLTCLVKGFYPSDIAVEWESNGQPENNYKTTPPMLDSDGSFFLYSKLTVDKSRWQQGNVFSCSVMHEALHNHYTQKSLSLSPG
insulin secretion from beta cells ([1]; absence of glucose): did not stimulate insulin secretion
insulin secretion from beta cells ([1]; presence of 5 mM or 20 mM glucose): dose-dependently stimulated insulin secretion
rate of fasting blood glucose reduction ([2]; db/db mice, 0.15 mg/kg Q3D sc): 46.8%
average rate of decline in random blood glucose levels ([2]; db/db mice, 0.15 mg/kg Q3D sc): 31.8%
average rate of fasting blood glucose reduction ([2]; db/db mice, 0.15 mg/kg Q3D sc): 55.0%
rate of fasting blood glucose reduction ([2]; db/db mice, 0.3 mg/kg Q3D sc): 55.6%
average rate of decline in random blood glucose levels ([2]; db/db mice, 0.3 mg/kg Q3D sc): 46.2%
average rate of fasting blood glucose reduction ([2]; db/db mice, 0.3 mg/kg Q3D sc): 61.8%
serum free fatty acid levels ([2]; db/db mice, 0.6 mg/kg): significantly reduced
rate of fasting blood glucose reduction ([2]; db/db mice, 0.6 mg/kg Q3D sc): 59.5%
average rate of decline in random blood glucose levels ([2]; db/db mice, 0.6 mg/kg Q3D sc): 50.8%
average rate of fasting blood glucose reduction ([2]; db/db mice, 0.6 mg/kg Q3D sc): 63.7%
perirenal fat content ([2]; db/db mice, 1.2 mg/kg): significantly reduced
rate of fasting blood glucose reduction ([2]; db/db mice, 1.2 mg/kg Q3D sc): 64.7%
average rate of decline in random blood glucose levels ([2]; db/db mice, 1.2 mg/kg Q3D sc): 54.3%
average rate of fasting blood glucose reduction ([2]; db/db mice, 1.2 mg/kg Q3D sc): 66.1%
serum fructosamine levels ([2]; db/db mice, 1.2 mg/kg sc): significant reduction
time the hypoglycemic effect (fasting blood glucose) can be maintained ([2]; db/db mice, 0.15, 0.3, 0.6 and 1.2 mg/kg every 3 days): at least 54 hours
scapular fat content ([2]; db/db mice, 0.15, 0.3 and 0.6 mg/kg): significantly reduced
serum fructosamine levels ([2]; db/db mice, 0.15-0.6 mg/kg sc): decreasing trend
subcutaneous fat content, inguinal fat content and their ratios to body weight ([2]; db/db mice, 0.3, 0.6 and 1.2 mg/kg): significantly reduced
random and fasting body weights ([2]; db/db mice, 0.3, 0.6 and 1.2 mg/kg (P<0.05, P<0.01, P<0.001)): significant decreases
insulin secretion (serum insulin levels) ([2]; db/db mice, 3 hours after administration): significantly promoted insulin secretion
fasting blood glucose levels versus model control group ([2]; db/db mice, Q3D sc, YN-011 all dose groups (P<0.001), Degludec 0.3 mg/kg): significant decrease; also recorded: significantly reduced fasting blood glucose levels
epididymal fat content and its ratio to body weight ([2]; db/db mice, YN-011 treatment groups vs solvent control): significant decrease
time the hypoglycemic effect was sustained ([2]; db/db mice, after repeated administration): 72 h
fasting serum insulin levels [2, 6]: dose-dependently increased
pancreatic-cell mass [2, 6]: significant increase
time after administration at which therapeutic effect was observed ([2]; db/db mice, first administration, dose as low as 0.15 mg/kg): 3 h
random plasma glucose (RPG) concentration ([2]; db/db mice, following the first subcutaneous administration, 0.15-1.2 mg/kg): significantly reduced
serum triglyceride levels ([2]; db/db mice, multiple sc injections vs solvent control): significantly decreased
RPG levels versus control group ([2]; db/db mice, repeated administration, all dose groups and time points except 0.15 mg/kg after the 4th administration (P=0.07)): significantly lower
reduction in HbA1c levels [3]: 1.73%
side effects or safety risks ([4]; 1-4 mg sc): No significant side effects or safety risks
HbA1c levels compared to placebo ([4]; multiple sc administrations, 1 mg, 3 mg or 4 mg, p<0.05): persistent improvement; also recorded: significant difference compared to the placebo
fasting blood glucose compared to placebo ([4]; multiple sc administrations, 3 mg or 4 mg, p<0.05): statistically significant improvement; also recorded: significant difference compared to the placebo
oxidation level at position W31 [5]: not oxidized
